Measurements taken from article doi:10.1101/2020.12.19.423584 (bioRxiv, 2020).

Target: purified SARS-CoV-2 N protein produced in pupae (SARS-CoV-2, UniProt P0DTC9 1-419)
Test: ELISA

B1: Niemann-Pick type C1 (NPC1) receptor, endogenous human (natural protein)
chain: QSCVWYGECGIAYGDKRYNCEYSGPPKPLPKDGYDLVQELCPGFFFGNVSLCCDVRQLQTLKDNLQLPLQFLSRCPSCFYNLLNLFCELTCSPRQSQFLNVTATEDYVDPVTNQTKTNVKELQYYVGQSFANAMYNACRDVEAPSSNDKALGLLCGKDADACNATNWIEYMFNKDNGQAPFTITPVFSDFPVHGMEPMNNATKGCDESVDEVTAPCSCQDCSIVCGPKPQPPPPPAPWTILGLDAMYVIMWITYMAFLLVFFGAFFAVWCYRKRYFVSEYTPIDSNIAFSVNASDKGEASCCDPVSAAFEGCLRRLFTRWGSFCVRNPGCVIFFSLVFITACSSGLVFVRVTTNPVDLWSAPSSQARLEKEYFDQHFGPFFRTEQLIIRAPLTDKHIYQPYPSGADVPFGPPLDIQILHQVLDLQIAIENITASYDNETVTLQDICLAPLSPYNTNCTILSVLNYFQNSHSVLDHKKGDDFFVYADYHTHFLYCVRAPASLNDTSLLHDPCLGTFGGPVFPWLVLGGYDDQNYNNATALVITFPVNNYYNDTEKLQRAQAWEKEFINFVKNYKNPNLTISFTAERSIEDELNRESDSDVFTVVISYAIMFLYISLALGHMKSCRRLLVDSKVSLGIAGILIVLSSVACSLGVFSYIGLPLTLIVIEVIPFLVLAVGVDNIFILVQAYQRDERLQGETLDQQLGRVLGEVAPSMFLSSFSETVAFFLGALSVMPAVHTFSLFAGLAVFIDFLLQITCFVSLLGLDIKRQEKNRLDIFCCVRGAEDGTSVQASESCLFRFFKNSYSPLLLKDWMRPIVIAIFVGVLSFSIAVLNKVDIGLDQSLSMPDDSYMVDYFKSISQYLHAGPPVYFVLEEGHDYTSSKGQNMVCGGMGCNNDSLVQQIFNAAQLDNYTRIGFAPSSWIDDYFDWVKPQSSCCRVDNITDQFCNASVVDPACVRCRPLTPEGKQRPQGGDFMRFLPMFLSDNPNPKCGKGGHAAYSSAVNILLGHGTRVGATYFMTYHTVLQTSADFIDALKKARLIASNVTETMGINGSAYRVFPYSVFYVFYEQYLTIIDDTIFNLGVSLGAIFLVTMVLLGCELWSAVIMCATIAMVLVNMFGVMWLWGISLNAVSLVNLVMSCGISVEFCSHITRAFTVSMKGSRVERAEEALAHMGSSVFSGITLTKFGGIVVLAFAKSQIFQIFYFRMYLAMVLLGATHGLIFLPVLLSYIGPSVNKAKSCATEERYKGTERERLLNF
  binding result: binds
